# Reference: a protein production outcome set (Wang et al. 2014)
# Assay: label from the status in PepcDB records
row,Sequence,protein production
1,MSSEKVMSESSNASTKEGQLPRSSGVSWSLIMGAAFLMATSAVGPGFLTQTTVFTQTLGASFAFVILVSIILDIGAQLNIWRVIVVSKKRAQDIANDLLPGLGYAIAGTVALGGLAFNIGNIGGAGMGMNVLFPSISPVAGASISAVIAVAIFMLKDAAKVMDRFTILMGAALIVMTLYVLFSTSPPIGEALYRSVWPEKLNVLAIITLVGGTVGGYITFAGAHRLIDAGVTGKEALPQVNRGSVSAISVASIVRVILFLAALGVISTGVTLDPSNPPASMFQHAAGNIGYKIFGLVLWAAAITSVIGAAYTSVSFLKTLHPMIDLHSRKFIIGFIVISTFIFCFIGKPVVLLIVAGALNGFILPVTLGIMLIAAKKAQIVGDYKHPVWMSVFGWLITAMMAAMSVYTLYMLLI,failed
2,MSSERIVELIKEIYLDFRKGNFKEALVKSEEAHSLDFDNIEILTALKSSVYWNGQVESLDRIGQDYEKAEFLIREWNNFAGRYLKKMGCNFLQGRNSIKYFVFQTCLYIYKNIYKMHPENLDLLIKIAKSYKGMGNYERAINVFLQILGDFKDNSDVVAELADSYALVDEIKEAKVLFREAFFINPQKIDIYSLESDMILRLIDLIKSDRNISDDLIKEWIPVYGSLNGVFNIKRELRPIELGQLKQSVYSLRNELKEKSYRSINESILLPRLINKYFWLIDHYVRIKEDRARIDEILLYIKEIDLGIYQQYVN,failed
3,MSSERQLAGRIVVPGEPLPEEVEASPPYVIDYKGVKRATVVGLLREKGDGGGRAFVKLKEIYVPQAGDVVIGLIQSVGIMNWFVDINSPYVAVLSVQDFLGRPFNPAVDDMQSLLKVGDYIKAKVVAFDKTRSPLLTVQGEGLGRIVRGKIVEISPAKVPRVIGRKMSMLKTLEEKTECKIFVARNGRIHLECPNEDLEAIAVMAIKIIDEEAYTSGLTKRIIKFIEEERRIREV,not failed
4,MSSFAELLQQGASQAWLYFPSAILLGALHGLEPGHSKTMMAAFIVAIRGTVKQAVLLGLASTLSHTAVVWLVAMAGMYLGQNLNAETTEPYFQLASAAIIITIALWMLWRTWRGEQMWRFEEGDDLQHDYHHHDEMQRIDTGHGRIELSIFEEGVPPRWRLNILTGHAWSAAEMSLLTTRPDGLAQQFRFVDRGDYLESVDEIPEPHEFTARLSLGHAGHSHDYDLEFHEHGHGHGHDHAELEGLELSLEGYQDAHERAHANDIRKRFSNRNVTTGQIILFGLTGGLIPCPAAITVLLLCLQVKEVALGAVLVLCFSIGLAITLVTVGAAAAIGARQASNRWPWLGAVARRAPYLSSLLIIGVGIYVGVHGWIGLNA,failed
5,MSSFKGIFGFNRVELKDLLISSIAIAIVVVWPRGFPTFNIGFFLHFIAALLTVGIAFIFHELAHRTVARHFGAWSEFRAWYEGLALAIFLKIILGFTFIAPGAVYIHKDYLKTKENGLISVAGPLTNIVLAVLFMILPIPAIYYSGYYVDISSYGYFVNIFLAMFNLLPIYPFDGSKVMRWNFLVWAVLFIPLIVLYFFV,failed
6,MSSGKDFFVHSHALCESENIGKDSRVWAFAHILPGARLGSECNVCDNVFIENDVIIGDRVTLKCGVQVWDGITIEDDVFIGPNATFTNDLFPRSKVYPQTFARTIIRKGASLGANCTILPGITIGINAMVGAGAVVTRSVPPNAIVVGNPAKIIGYVDAKPVNANSETRAEQKAPGVTATSVKNVTLHTMNEVADIRGSLSAGEFERSVPFKTERYFLVYDVPTAETRGEHAHRICHQFLVAVKGSVHVVADDGVNREEFILDKPNQGIHLPPMTWGIQYRYSQDAVLLVFASHYYDAGDYIRNYEEFKSLIANAELEHHHHHH,not failed
7,MSSGNVFLLSIASSAGMNIRLVHRLIAASCAVVLCSTVGIPAGRAGDPFRSSNPQPISASTAAAFTAAFQQGNYPAAEQALQQALRQDSSDPLVFALAGSLAFAQQNRQAFADYARQTKSKAQAIAPQQPLRSQLYIAVGELMMAASTLLPQLTGDGGVPLAAVPQALQSLQTVYGSLRAAAQINPNDPELNLVQGFVDLIVATNLPLANPSGAIAKLEKASPRYLADRGIALGLRNLKRYPEAIQYVDRAIAAAPENPELRYLKAQILVEQSKATGDANLRRAAAAEFQKALAKSSQLPQPLVWQLFFEACNNQKTFDNRGQDCVSLRDQVTQAPGPWGPATLPPL,failed
8,MSSIGYSRRFRLFRRGEVTVLEVMAGQKAYPDTLRYLLVPEGRPQPSGFVGYTVIRTPVKRIAVFSTTHIGFLDMLGRSDGIIGVSRPEFVNTPAVRSRIRSGAIKAIGMPFSPDVEALLNLEPDLVIAPALPAARKTDYQALVQAGIPVLVVAEWLEPSPLGRAEWIKLFGALVGKEKLARERFAAIESSYLKIAALSRNLPNRPTVLTGLPVKDAWYVPTGGSYVAAMLRDAGASYHWRDLPGTGSVPLTIEAVWPVALEAEYWLNTGTVSTLDELLAVDSRFGQMRSVRERRVWNNNRLVNAAGGNAYWESGVVRPDLILKDLVMILHPGLLRAHGIGEGELTFFQEVKLEHHHHHH,not failed
9,MSSKGEGSSSTAEREVKKQVASVIPVTRKLVKTMAAKAIISALTPSGCGRHSDSTGDGKELKPFKKKEGSVIPKERELVKTKAAKAIFSLFRPSCDGKQSSQPSRDGDGDHDGKRVYPTRY,failed
10,MSSMGDQRGTRVYVGNLTDKVKKDDLEGEFTKYGKLNSVWIAFNPPGFAF,failed
11,MSSNECFKCGRSGHWARECPTGGGRGRGMRSRGRGGFTSDRGFQFVSSSLPDICYRCGESGHLAKDCDLQEDACYNCGRGGHIAKDCKEPKREREQCCYNCGKPGHLARDCDHADEQKCYSCGEFGHIQKDCTKVKCYRCGETGHVAINCSKTSEVNCYRCGESGHLARECTIEATA,not failed
12,MSSPATTITFFFFFTLSSFFYITSSLQNNNNNKHTATVNSLNIPSAAAEITLVNPKLPPRSLSLTSSKKFEGSSNLVHLRYHMGPVLSSSPINIYVIWYGQWSRPHKSLIRDFLNSISDAKAPSPSVSEWWRTASLYTDQTGSNVSRSVLIAGEYSDSKYSHGQHLTRLTIQEVIASAARSASFPVDHKNGMYLVLTSHDVTMQDFCRAVCGFHYFTFPSMVGYTMPYAWVGQSGKQCPEVCAYPFALPGYMGHGGPGELRPPNGETGVDGMVSVIGHELAEVVSNPLINAWYAGEDPTAPTEIGDLCEGLYGSGGGGGYIGQVMRDREGKTFNMNGKGGRKFLVQWIWNPNLKACSGPNSVD,failed
13,MSSPVISPETKTGKKILLAAPRGYCAGVDRAVETVERALEEYGAPIYVRKEIVHNRYVVDTLAEKGAIFVNEASEAPEGANMVFSAHGVSPMVHEEAAAKNIKAIDAACPLVTKVHKEVQRFDKQGFHILFIGHEGHEEVEGTMGHSVEKTHLVDGVAGIATLPEFLNDEPNLIWLSQTTLSVDETMEIVRELKVKFPQLQDPPSDDICYATQNRQVAVKAIAERCELMIVVGSRNSSNSVRLVEVAKQNGADNAYLVDYAREIDPAWFEGVETIGISSGASVPEILVQGVIERLAEFGYDDVEEVTSAAEKIVFALPRVLRHKN,not failed
14,MSSPYILVLYYSRHGATAEMARQIARGVEQGGFEARVRTVPAVSTECEAVAPDIPAEGALYATLEDLKNCAGLALGSPTRFGNMASPLKYFLDGTSSLWLTGSLVGKPAAVFTSTASLHGGQETTQLSMLLPLLHHGMLVLGIPYSEPALLETRGGGTPYGASHFAGADGKRSLDEHELTLCRALGKRLAETAGKLGS,not failed
15,MSSRAKRLTHLASLPSMSRALLKKILHFDETLTVIFKQSHVQLSETYGLSTKKARHLYEHLRRVSTDFWSEYYEKKQIVPVTIFDKGYPNLLKEIYDPPFVLFCRGRMNTLYSEKRLAIVGTRKTSTTGLKSLELLIPPLLQDGWVIVSGFAAGVDIHAHQLTVKNGGQTIAVLAHGHDNLYPAAHRPFAEHEMVSQLMISEYPPYVKPRPWQFPERNRIISGLCAGTVVIEAKEKSGSLITADQALEQGRDVFAVPGAITNQKAAGTNQLIQQGAKLIQRADDIIEELCGFQQSCDSDKFF,failed
16,MSSRPSRGAARLAAILDALPDALVLVNANGTVVNANTIALEAFETPGTALVGRGLLDLLPEFDSRLIPGSMRRPDSMDPRGRTKPTRMVARRTDGSEFPVEVTSANLENGQQAYDGYGYTGD,failed
17,MSSSREENVYLAKLAEQAERYEEMVEFMEKVAKTVDTDELTVEERNLLSVAYKNVIGARRASWRIISSIEQKEESRGNDDHVSIIKDYRGKIETELSKICDGILNLLDSHLVPTASLAESKVFYLKMKGDYHRYLAEFKTGAERKEAAESTLVAYKSAQDIALADLAPTHPIRLGLALNFSVFYYEILNSPDRACSLAKQAFDEAISELDTLGEESYKDSTLIMQLLRDNLTLWNSDINDEAGGDEIKEASKHEPEEGKPAETGQ,failed
18,MSSSSTSGLPATLPFEELAEAIKGRRSDYGHISGLQLDRFAPAEAWSSLPYRPVFVGDTETGVLHGGVVTAMLDESCGMAVQLALDGTRAIATLDLRIDYQKPATPGLDIKAHSVCYRTTRSIAFVRSTAYQESEDDPVATATACFMIGANRTNMLADRRMDSRSIPTLEAPEDPDGPFARSPFARCLGIRVNDDGTLTMPFSPKIIGNPILPAIHGGMTGAFLETTAIIGVARELGAAAPPKPIGLTINYLRSGRALDSFANVSIVKQGRRIVAFEARAWQDDADKPIATAFGHFMLRPTPGNDEE,failed
19,MSSSTDTAMAAAEPIWLQHLAEQNIADFIPHRAPMILIDKIISHQQDALETEVLITPQSAYFDEHRQAVPNYVGIEYMAQSIAALAGVEAKLRHDKIRVGFLLGSRKLALHTAQYELNRRYRTQVKRLYQEESGLAVFDCQIYLLPEAQAQQTPLLVAEANVNVFQPQDTQAYIASSQQA,failed
20,MSSSTGALHWQTAQAALARRDLGVAGSALQALLEVEPTHVSARVLLAGTVLANGRMREAVAQLQLAARDVDDDVAMRCRVAQALLRVGAHRQLHALLRHPSVMQCRDGATLALLAHVHQSLGEHVDALAMMQRAQVCGFDGPDFRFFLAVQLQFNGRLDDAAQALEQTLALVPGYGRAALTRARLRRQTVSSNHVDQLRQQLQRSKPDSEDRAGLAFALYKELEDLGDTDAAWDALQHGNAVMHARLRHDADAEASLYARLGTLAEQGVFAAQASDADAVALQGPQPIFVLGLPRSGTTVLERMLGNHSQIVSAGELNDFGHQLRWGADQAGRSLLDAGLLQAFPTLDYTQIGARYLEQTQWRAGPARWYIDKLPANAVAIGAIARALPGALIVHLVREPMAVCFSNYRALFGDSYAYSYDVHTLARHYQAYHGLMAQWRAALPGRVIDVDYTQMVRDPSTVLQQLMARCGLDIEPGQSDITRNAAASATLSSVQVREGVHSRNVEHWRRYAMQLEPLRQALAEAGLIDAGLH,failed
21,MSSSVVAETVPSGSGSWFSHFKATLVLGIPLIGAQLAQLGIHTTDMVIVGQLGAEKLAAMVLAGQFFFVVFIFGSGFSVAVVPMVAQAYGQGDATSARRSLRMGMWVAIAYWLLALPIFFNAERILVYLGQNPNVAALTGHYLAIAKFGLLPALLFYVLRGLVSAIGRAGIILYVTIIMLVMNGLMAYVLVFGHFGLPAMGMNGAAVVAVIVNAFSFIFIVAYVQTREETKKYELFVRFWRPDWHALFEVLRLGLPISITILAEVTLFAAASILMGQIGTVQLAAHGIALQLASIAFMIPLGLSQAATVRVGVARGQGDFKNLIRASIMIYAIACGIALCGGILFAAVPEFLAKWFLDPKLPEAAEVLAYASSLVVIAGIFQLVDGIQAVTAGLLRGLKDARIPAMLALISYWPIGLALAWTMAFPLGFGGRGVWFGFVIGLSTAAVLLTVRFVLLVKREMKTAR,failed
22,MSSTKLIVLKSKELIYTAILLALIVVFVIILINMFKRNDKSDGSQSGPAKAVSAPADPGTGIYNTRYTPGTYSSPLILGENTLSVIVTVDDCQITDVSFQQMGETITTMYPLLESSLEDINTQLHYISSVDDIIPSGDSTYTTKLIIDSIKNALKEAVVN,failed
